According to PMC6754605 (Proceedings of the National Academy of Sciences of the …, 2019):
Numbering of substitutions follows the chain as printed. Names may count otherwise.

Molecular target: the molecule itself
Assay: SEC

B1: mouse SAA3 F24S/M25S double mutant (natural protein, UniProt P04918 19-122, looked up)
chain: QRWVQSSKEAGQGSRDMWRAYSDMKKANWKNSDKYFHARGNYDAARRGPGGAWAAKVISDAREAVQKFTGHGAEDSRADQFANEWGRSGKDPNHFRPAGLPKRY
B1: binds.

B2: mouse SAA3 W71S/V75S double mutant (natural protein, UniProt P04918 19-122, looked up)
chain: B1 chain with S6F, S7M, W53S, V57S
B2: binds.
